Test results from US20190382504A1.

Experiments:
Test in all cases: FACS, peptide-pulsed T2 cells
[1] = target: ESO157 A1 peptide (…)/HLA-A*02:01 complex on T2 cells (human)
[2] = target: ESO157 A3 peptide (…)/HLA-A*02:01 complex on T2 cells (human)
[3] = target: ESO157 A4 peptide (…)/HLA-A*02:01 complex on T2 cells (human)
[4] = target: ESO157 A5 peptide (…)/HLA-A*02:01 complex on T2 cells (human)
[5] = target: ESO157 A6 peptide (…)/HLA-A*02:01 complex on T2 cells (human)
[6] = target: ESO157 A7 peptide (…)/HLA-A*02:01 complex on T2 cells (human)
[7] = target: ESO157 A8 peptide (…)/HLA-A*02:01 complex on T2 cells (human)
[8] = target: ESO157 wild type peptide (…)/HLA-A*02:01 complex on cells (human)
[9] = target: HLA-A*02:01 on T2 cells without peptide loading (human)

Substance	MFI [1]	MFI [2]	MFI [3]	MFI [4]	MFI [5]	MFI [6]	MFI [7]	MFI [8]	MFI [9]
KO7 helper phage	92	100	97	101	91	84	94	136	97
antibody BB7.2	67000	66100	60300	59000	55800	72900	75000	76000	53100
